According to patent US20100104530A1 (published 2010):

Legend:
[1] = target: T1, GST-VPAC1 fusion protein (full length human VPAC1) (human, UniProt P08515 1-218 = GST); assay: SPR (BIAcore 1000), GST-VPAC1 immobilised on CM5, antibody injected, 1:1 Langmuir fit; first batch; first of two batches of murine 23A11
T1 construct: also called recombinant VPAC1
Protocol: (§1) For kinetic binding analysis of GST-VPAC1 with the GST-VPAC1-antibodies, we used a BIAcore surface plasmon resonance system at 25° C. These interactions were performed on a BIAcore 1000. GST-VPAC1 was covalently immobilized on a CM5 sensorchip (carboxylated dextran matrix) after activation with a 1:1 mixture of 1-ethyl-3-(3-dimethylaminopropyl)carbodiimide and N-hydroxysuccinimide. The remaining active sites on the chip were blocked by 1.0 M ethanolamine-HCl at pH 8.5. To perform binding assays with the GST-VPAC1-antibodies, various concentrations (ranging from 250 nm to 5 nm) of murine 23A11 were injected over the immobilized GST-VPAC-1 at a flow rate of 30 μl/min. This was performed in a running buffer consisting of 0.01 M HEPES at pH 7.4, 0.15M NaCl, 3 mM EDTA and 0.005% Surfactant P20 (or Tween 20). The sensorgrams were evaluated using the BIAevaluation 4.1 software. The rate constants kₐ and kd and the dissociation constant KD were determined by using a global fit with a Langmuir 1:1 binding model with baseline drift.

[2] = target: T2, GST fusion of VPAC1 extracellular loop 3 (human); assay: western blot on GST fusion of extracellular loop 3
T2 construct: also called isolated extracellular loop 3 of the VPAC1 receptor; not shown: glutathione-S-transferase (GST)
T2 chain: PDNFKPEVKMLFE

[3] = target: T3, GST fusion of VPAC1 variant 3-2 (amino acids 123-457 of SEQ ID NO:15) (human, UniProt P32241 123-457); assay: western blot on GST-fused VPAC1 deletion variants
T3 construct: not shown: GST carrier and the pGEX vector linker
T3 sequence: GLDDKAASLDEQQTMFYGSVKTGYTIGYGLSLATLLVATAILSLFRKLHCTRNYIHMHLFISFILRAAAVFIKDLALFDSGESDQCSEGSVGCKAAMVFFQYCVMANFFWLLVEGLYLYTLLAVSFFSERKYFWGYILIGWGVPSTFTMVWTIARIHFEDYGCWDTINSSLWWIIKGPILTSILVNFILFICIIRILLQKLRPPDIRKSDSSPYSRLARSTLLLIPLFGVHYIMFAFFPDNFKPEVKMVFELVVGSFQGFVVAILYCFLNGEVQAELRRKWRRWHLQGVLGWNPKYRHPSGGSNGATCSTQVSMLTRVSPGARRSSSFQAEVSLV
Protocol: (§2) For the epitope mapping of 23A11, several VPAC1 deletion variants were fused to GST and expressed. Binding of 23A11 to the VPAC1 deletion variants was tested by western blotting.
(§3) VPAC1 variant 4-2 (and, to a lesser extent, variant 3-2) was recognized by 23A11. Since this protein contains the second as well as the third extracellular loop of VPAC1, both loops (extracellular loop 2: SEQ ID NO:1; extracellular loop 3:SEQ ID NO:1) were made as GST fusion proteins and tested in western blotting. The murine antibody 23A11 was binding to each of these loops.

[4] = target: T4, GST fusion of VPAC1 variant 4-2 (amino acids 231-457 of SEQ ID NO:15) (human, UniProt P32241 231-457); assay: western blot on GST-fused VPAC1 deletion variants
T4 construct: not shown: GST carrier and the pGEX vector linker
T4 sequence: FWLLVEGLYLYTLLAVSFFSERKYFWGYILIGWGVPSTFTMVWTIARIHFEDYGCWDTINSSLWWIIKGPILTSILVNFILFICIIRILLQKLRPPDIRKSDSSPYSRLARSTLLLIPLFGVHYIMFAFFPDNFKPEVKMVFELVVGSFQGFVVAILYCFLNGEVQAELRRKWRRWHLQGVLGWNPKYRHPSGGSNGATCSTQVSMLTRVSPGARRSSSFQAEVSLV
Protocol: as §2, §3

[5] = target: T1, GST-VPAC1 fusion protein (full length …); assay: SPR (BIAcore 1000), GST-VPAC1 immobilised on CM5, antibody injected, 1:1 Langmuir fit; second batch; second of two batches of murine 23A11
Protocol: as §1

[6] = target: T5, VPAC1 receptor of mouse bone marrow-derived CD41/61+ megakaryocytes (mouse, UniProt P97751 31-459); assay: immunoblot of mouse bone marrow megakaryocytes
T5 construct: whole, on cells; Detected by immunoblot of megakaryocytes and addressed on living megakaryocytes in the cAMP assays; also called VPAC1 receptor on the murine megakaryocytes
T5 sequence (looked up): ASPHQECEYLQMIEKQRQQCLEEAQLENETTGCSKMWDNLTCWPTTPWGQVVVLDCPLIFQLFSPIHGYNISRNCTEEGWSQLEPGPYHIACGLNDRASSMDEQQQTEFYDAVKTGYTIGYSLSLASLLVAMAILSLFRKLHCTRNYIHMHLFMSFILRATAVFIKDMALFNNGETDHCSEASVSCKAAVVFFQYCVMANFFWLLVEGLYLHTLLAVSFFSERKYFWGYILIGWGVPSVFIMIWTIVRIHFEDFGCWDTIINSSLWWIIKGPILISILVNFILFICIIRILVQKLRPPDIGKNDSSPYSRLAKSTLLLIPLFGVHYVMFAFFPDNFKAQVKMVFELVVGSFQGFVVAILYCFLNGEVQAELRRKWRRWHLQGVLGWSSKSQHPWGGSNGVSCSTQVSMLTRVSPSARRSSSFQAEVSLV

[7] = target: T6, GST fusion of VPAC1 extracellular loop 2 (human); assay: western blot on GST fusion of extracellular loop 2
T6 construct: also called isolated extracellular loop 2 of the VPAC1 receptor; not shown: glutathione-S-transferase (GST)
T6 chain: IHFEDYGCWDTINSSLWW

[8] = target: T1, GST-VPAC1 fusion protein (full length …); assay: SPR (BIAcore 1000), GST-VPAC1 immobilised on CM5, 1:1 Langmuir fit; humanized 23A11, isotype not stated

B1: murine anti-VPAC1 monoclonal antibody 23A11 (antibody, V domains shown)
VH: EVQLQESGPSLVKPSQTLSLTCSVTGDSITSGYWNWIRKFPGNKLEYMGYIRYSGSTYYSPALKSRFSITRDTSKNQYYLQLNSVTTEDTATYYCSNWAYWGQGTLVTVSA
VL: DIVITQDELSNPVTSGESVSISCRSSKSLLYKDGKTYLNWFLQRPGQSPQLLIYLMSTRASGVSDRFSGSGSGTDFTLEISRVKAEDVGVYYCQQLVEYPLTFGAGTKLELK
notes: Mouse monoclonal antibody from a hybridoma; also called murine 23A11; anti-VPAC1 receptor antibody 23A11
- Kd [1]: 28.3 nM
- binding result [2]: binds
- binding result [3]: binds
- binding result [4]: binds
- Kd [5]: 19.9 nM
- binding result [6]: binds
- binding result [7]: binds

B2: humanized anti-VPAC1 monoclonal antibody 23A11 (antibody, V domains shown)
VH: EVQLQESGPGLVKPSQTLSLTCTVSGDSITSGYWNWIRKHPGKGLEYMGYIRYSGSTYYSPSLKSRFTISRDTSKNQYSLKLSSVTAADTATYYCSNWAYWGQGTLVTVSA
VL: DIVITQSPLSLPVTPGEPVSISCRSSKSLLYKDGKTYLNWFLQRPGQSPQLLIYLMSTRASGVSDRFSGSGSGTDFTLKISRVEAEDVGVYYCQQLVEYPLTFGQGTKLEIK
notes: also called h23A11; rhu23A11
- Kd [8]: 9.82 nM
